Target: T1, Rpb1 subunit of yeast Pol II (S. cerevisiae, UniProt P04050 1-1733)
T1 construct: Rpb1, largest subunit of S. cerevisiae RNA polymerase II; identified as the labelled band after SDS-PAGE; source: subunit within purified S. cerevisiae Pol II
Assay: proximity labelling; in vitro biotinylation (BioID): 0-8 pmol hNDF-BirA* with 25 pmol yPol II in 20 μL; 20 mM HEPES pH 7.5, 10 mM MgCl2, 100 mM KCl, 1.5 mM ATP, 5% glycerol, 0.5 μM biotin; 30 °C, 1 h; SDS-PAGE and streptavidin-HRP blot
Conditions: both partners purified

T1 sequence (P04050 whole entry): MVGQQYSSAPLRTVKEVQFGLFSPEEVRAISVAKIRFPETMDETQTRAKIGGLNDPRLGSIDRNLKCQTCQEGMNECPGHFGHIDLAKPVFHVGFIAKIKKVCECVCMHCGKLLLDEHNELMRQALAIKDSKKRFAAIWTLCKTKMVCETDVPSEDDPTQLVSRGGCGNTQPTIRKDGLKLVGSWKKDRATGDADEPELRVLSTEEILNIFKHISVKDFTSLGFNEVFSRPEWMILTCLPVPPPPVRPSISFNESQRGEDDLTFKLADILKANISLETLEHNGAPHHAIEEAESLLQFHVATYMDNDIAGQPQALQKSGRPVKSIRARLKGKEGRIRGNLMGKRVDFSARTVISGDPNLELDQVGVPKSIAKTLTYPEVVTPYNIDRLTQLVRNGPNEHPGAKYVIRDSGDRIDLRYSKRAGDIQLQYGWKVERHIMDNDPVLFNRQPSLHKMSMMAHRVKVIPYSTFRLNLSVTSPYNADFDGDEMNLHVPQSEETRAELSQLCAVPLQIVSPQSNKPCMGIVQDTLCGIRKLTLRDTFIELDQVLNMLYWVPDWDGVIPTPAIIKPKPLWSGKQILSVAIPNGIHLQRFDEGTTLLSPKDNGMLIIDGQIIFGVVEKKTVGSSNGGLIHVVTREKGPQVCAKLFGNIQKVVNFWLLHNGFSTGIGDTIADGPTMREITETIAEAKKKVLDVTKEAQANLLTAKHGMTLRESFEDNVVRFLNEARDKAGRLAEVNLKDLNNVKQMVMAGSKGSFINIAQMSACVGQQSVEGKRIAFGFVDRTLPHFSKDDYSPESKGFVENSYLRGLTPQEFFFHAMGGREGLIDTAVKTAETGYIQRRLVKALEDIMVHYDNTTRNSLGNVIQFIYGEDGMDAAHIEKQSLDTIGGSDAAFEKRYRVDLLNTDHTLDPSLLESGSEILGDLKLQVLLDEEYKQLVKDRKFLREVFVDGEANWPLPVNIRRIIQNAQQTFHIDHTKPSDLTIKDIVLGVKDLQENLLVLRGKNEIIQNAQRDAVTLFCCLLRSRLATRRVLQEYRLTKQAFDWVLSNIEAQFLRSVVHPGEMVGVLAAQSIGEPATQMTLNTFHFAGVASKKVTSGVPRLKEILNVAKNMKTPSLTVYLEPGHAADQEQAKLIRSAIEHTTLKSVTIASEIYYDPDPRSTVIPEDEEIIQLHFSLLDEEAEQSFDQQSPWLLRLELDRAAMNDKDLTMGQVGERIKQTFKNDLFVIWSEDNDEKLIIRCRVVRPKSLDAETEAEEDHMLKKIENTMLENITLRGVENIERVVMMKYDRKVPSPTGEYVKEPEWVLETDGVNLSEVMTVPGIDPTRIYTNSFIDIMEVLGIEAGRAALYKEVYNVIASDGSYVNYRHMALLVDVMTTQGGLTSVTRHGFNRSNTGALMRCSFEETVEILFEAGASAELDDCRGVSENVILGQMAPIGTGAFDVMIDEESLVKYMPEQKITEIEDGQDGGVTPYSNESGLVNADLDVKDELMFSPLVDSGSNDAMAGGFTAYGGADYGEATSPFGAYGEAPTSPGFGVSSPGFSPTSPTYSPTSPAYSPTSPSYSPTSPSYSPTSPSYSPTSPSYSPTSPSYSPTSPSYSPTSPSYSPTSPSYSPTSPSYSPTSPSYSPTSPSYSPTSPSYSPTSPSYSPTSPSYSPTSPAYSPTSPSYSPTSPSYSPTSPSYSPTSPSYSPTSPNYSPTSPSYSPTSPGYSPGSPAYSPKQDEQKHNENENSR

B1: BirA*-hNDF fusion protein (natural protein, human, UniProt Q49A26 1-553, looked up)
chain: MAAVSLRLGDLVWGKLGRYPPWPGKIVNPPKDLKKPRGKKCFFVKFFGTEDHAWIKVEQLKPYHAHKEEMIKINKGKRFQQAVDAVEEFLRRAKGKDQTSSHNSSDDKNRRNSSEERSRPNSGDEKRKLSLSEGKVKKNMGEGKKRVSSGSSERGSKSPLKRAQEQSPRKRGRPPKDEKDLTIPESSTVKGMMAGPMAAFKWQPTASEPVKDADPHFHHFLLSQTEKPAVCYQAITKKLKICEEETGSTSIQAADSTAVNGSITPTDKKIGFLGLGLMGSGIVSNLLKMGHTVTVWNRTAEKCDLFIQEGARLGRTPAEVVSTCDITFACVSDPKAAKDLVLGPSGVLQGIRPGKCYVDMSTVDADTVTELAQVIVSRGGRFLEAPVSGNQQLSNDGMLVILAAGDRGLYEDCSSCFQAMGKTSFFLGEVGNAAKMMLIVNMVQGSFMATIAEGLTLAQVTGQSQQTLLDILNQGQLASIFLDQKCQNILQGNFKPDFYLKYIQKDLRLAIALGDAVNHPTPMAAAANEVYKRAKALDQSDNDMSAVYRAYIH
notes: human NDF / GLYR1 fused to the promiscuous biotin ligase BirA*; The name is printed in both orders (BirA*-hNDF, hNDF-BirA*); the construct's name puts BirA* before hNDF; also called hNDF-BirA*; hNDF-BirA; source: pET21b-N-His6-BirA*-hNDF expression construct, purified as previously described [44]; not shown: BirA* (promiscuous biotin ligase), N-terminal, kept
B1: binds.

— PMC12112590, “NDF/GLYR1 Promotes RNA Polymerase II Processivity via Pol II Binding and Nucleosome Destabilization” (International Journal of Molecular Sciences, 2025)
